Results: publication PMC4294473

Molecular target: recombinant human P301S 0N4R Tau (human)
Assay: co-sedimentation; cell seeding assay: HEK293T cells expressing P301S 1N4R Tau exposed 3 h to rising concentrations of heparin-assembled, sonicated recombinant Tau aggregates (Sarkosyl-insoluble), 3 days; Sarkosyl-insoluble pellet blotted with HT7

fold more seed needed than of TgP301S Tau aggregates for equivalent seeding: > 10 fold | fold more seed needed than of TgP301S Tau seed for equivalent Sarkosyl-insoluble Tau: 50 fold
Substance: human P301S 1N4R Tau expressed in HEK293T cells (natural protein)
